Results reported in the supplement of paper PMC10724198.
± gives the standard deviation of the averaged measurements.

System: Saccharomyces cerevisiae
Assay: protein stability index of tFT-peptide fusion (C-terminal peptide) (PSI (0-1 scale)); higher = more stable (slower turnover)
Settings: genetic background: wild type; temperature: 30 C
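Also: PSI is a weighted mean of sequencing reads over stability bins, variants kept only with over 10 reads, mCherry proximal and sfGFP distal, peptide attached via GGGS linker.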

NLHLVRNEELVL
protein stability index: 0.6743 ± 0.0036

CASSFSFFRFPP
protein stability index: 0.586 ± 0.019

HPSRPARPTRHP
protein stability index: 0.806 ± 0.072

MRRAQADRVYRL
protein stability index: 0.7097 ± 0.0024

KIKTKKGTKKRK
protein stability index: 0.677 ± 0.039

FLLLSAGERCWD
protein stability index: 0.694 ± 0.085

AADVALQFKPRT
protein stability index: 0.658 ± 0.027

WGYWGGVMGLEE
protein stability index: 0.738 ± 0.043

LSELCFAPRSPE
protein stability index: 0.706 ± 0.046

PPVLAPCLPLTG
protein stability index: 0.681 ± 0.067

GPLNQALLHCSV
protein stability index: 0.653 ± 0.021

SLLYIQDFVSGV
protein stability index: 0.683 ± 0.019

PSSHPLLPPPPP
protein stability index: 0.67 ± 0.06

MRRNGRNILGVA
protein stability index: 0.729 ± 0.054

DQDAPNRPVDSS
protein stability index: 0.695 ± 0.018

LGCVLGLLVFGG
protein stability index: 0.601 ± 0.041

PAPPRSLPPSSP
protein stability index: 0.6536 ± 0.0058

FFMPRCCSLALE
protein stability index: 0.644 ± 0.047

ARIGVQRFSGVV
protein stability index: 0.708 ± 0.019

STGMYFYTHYLL
protein stability index: 0.632 ± 0.024

SPLPPPSHALLP
protein stability index: 0.712 ± 0.089

LPAPSPPSFPAP
protein stability index: 0.743 ± 0.099

CPSPPPIPLTLS
protein stability index: 0.6221 ± 0.001

LSNLQPPISVPL
protein stability index: 0.6473 ± 0.006

PRQAPPSLPSPP
protein stability index: 0.697 ± 0.076

LRDWCMLGELAR
protein stability index: 0.742 ± 0.014

PSASYLPCRSKL
protein stability index: 0.7474 ± 0.0046

TYQVVPRDAPYV
protein stability index: 0.672 ± 0.025

SCLPPSRPSSAL
protein stability index: 0.629 ± 0.019

ARWQALTHLIVL
protein stability index: 0.6151 ± 0.0051

VSRGHTEWVGMV
protein stability index: 0.702 ± 0.11

GLPSLHGTFRLS
protein stability index: 0.69 ± 0.0077

SLPVSSPIRILF
protein stability index: 0.6326 ± 0.0015

VAGFVPSWVALW
protein stability index: 0.643 ± 0.1

YHPPLDHHQCTE
protein stability index: 0.648 ± 0.063

LPPRSPLYPLPP
protein stability index: 0.613 ± 0.018

GAWWVHGRRVGR
protein stability index: 0.738 ± 0.046

FFFFPLLSVPDR
protein stability index: 0.6101 ± 0.0026

VLRRCGRERGIF
protein stability index: 0.688 ± 0.034

PKPPPSSGRCPA
protein stability index: 0.633 ± 0.011

SVPRPLSRPPFL
protein stability index: 0.697 ± 0.086

PPTPSPAPSPAP
protein stability index: 0.601 ± 0.011

RTKVSENLNEKK
protein stability index: 0.681 ± 0.032

YCGLQSWLGVGG
protein stability index: 0.677 ± 0.0076

SFSCYFPLGFFG
protein stability index: 0.7416 ± 0.001

LRPFLFSALPLT
protein stability index: 0.672 ± 0.01

LSSPPHVRSSPF
protein stability index: 0.695 ± 0.029

MGYYDGIRYKEV
protein stability index: 0.735 ± 0.092

EGGGGGPGDARR
protein stability index: 0.663 ± 0.025

WPGYLTNVLPVI
protein stability index: 0.65 ± 0.029

FGVTRSPLDPLF
protein stability index: 0.665 ± 0.043

GMPTANMYLLLQ
protein stability index: 0.636 ± 0.017

PSSPIFPFSSLP
protein stability index: 0.599 ± 0.15

YMSHPHGPLCLS
protein stability index: 0.75 ± 0.21

PLFAPLCLNSNR
protein stability index: 0.666 ± 0.016

CGEWSWAGVGVR
protein stability index: 0.702 ± 0.032

DMGGLKACRGVG
protein stability index: 0.5695 ± 0.0028

RTPSHPLPHPHS
protein stability index: 0.677 ± 0.12

KKERTGTKKKKK
protein stability index: 0.698 ± 0.048

SHSHMRRLKMYR
protein stability index: 0.717 ± 0.089

GGGSGGREPGGS
protein stability index: 0.726 ± 0.027

RCVGVLYVAGLE
protein stability index: 0.6533 ± 0.0012

RRLANMIFFLGG
protein stability index: 0.69 ± 0.042

GWTQFVLHSMFG
protein stability index: 0.72 ± 0.088

QTPLPPSAISPP
protein stability index: 0.7124 ± 0.005

LRDQEYAMRPPC
protein stability index: 0.693 ± 0.08

SGVLKHLRKESS
protein stability index: 0.641 ± 0.018

PRPDSRTRLPRP
protein stability index: 0.661 ± 0.019

FFLPPPPPPPPL
protein stability index: 0.677 ± 0.015

DVLLRGAVQPIC
protein stability index: 0.659 ± 0.0098

SSPPSPSPPPPT
protein stability index: 0.678 ± 0.038

LSPSDSPSPPAS
protein stability index: 0.6499 ± 0.0016

TRHPGGERIPTY
protein stability index: 0.743 ± 0.12

QPPSPHTLRADI
protein stability index: 0.787 ± 0.0037

SLSEEWAHIGGL
protein stability index: 0.643 ± 0.0072

SPFPAPCVFPSR
protein stability index: 0.761 ± 0.1

PGRFVVGAGRED
protein stability index: 0.686 ± 0.024

AWEWMTVQVVRG
protein stability index: 0.586 ± 0.012

EKYELHEVEKEI
protein stability index: 0.597 ± 0.049

HEVRGVFWNPRF
protein stability index: 0.712 ± 0.053

SGSWRFYPSTTC
protein stability index: 0.706 ± 0.056

AGGPGWGALVGA
protein stability index: 0.645 ± 0.047

ASGRARVIGVCR
protein stability index: 0.704 ± 0.029

CPIKSLLPGSFA
protein stability index: 0.693 ± 0.03

RVPNSYELRCFR
protein stability index: 0.544 ± 0.038

HSPPPPPALLPL
protein stability index: 0.66 ± 0.028

SGGAEGVRAGAA
protein stability index: 0.715 ± 0.081

GRMGGWCVSGEV
protein stability index: 0.658 ± 0.017

EVMGGANDCGVV
protein stability index: 0.689 ± 0.012

PPATLIWAWFFR
protein stability index: 0.67 ± 0.022

GHVETQTRMASG
protein stability index: 0.789 ± 0.19

LSFPAPLPLFNT
protein stability index: 0.767 ± 0.037

PPACPYPFRPLP
protein stability index: 0.668 ± 0.025

AYRRPKFLEGTF
protein stability index: 0.694 ± 0.1

VMCECALLVQSR
protein stability index: 0.563 ± 0.028

TRCKRNETCTSG
protein stability index: 0.669 ± 0.046

LDLSIKNPIKWR
protein stability index: 0.747 ± 0.089

TTSRTRVAHPPI
protein stability index: 0.622 ± 0.071

TESGWMGRGFMR
protein stability index: 0.656 ± 0.088

EKKKNKTKKKTN
protein stability index: 0.688 ± 0.056

SPPLPPLPLLQL
protein stability index: 0.696 ± 0.021

RLTKKKKEIKRR
protein stability index: 0.717 ± 0.014

VGDPHPIMQSLL
protein stability index: 0.773 ± 0.049

WRLCWWVVESGG
protein stability index: 0.639 ± 0.02

PPSPAPHATARP
protein stability index: 0.662 ± 0.062

VPPLFALAPPAP
protein stability index: 0.681 ± 0.029

RQEFSGAPPHLI
protein stability index: 0.697 ± 0.029

QGLPLCVVQALQ
protein stability index: 0.605 ± 0.042

SNLYNSENVPVD
protein stability index: 0.709 ± 0.041

IRIDRNLNSLGK
protein stability index: 0.685 ± 0.017

AKDSVDYKEGES
protein stability index: 0.6602 ± 0.0041

SPCTPSRLQPSS
protein stability index: 0.65 ± 0.027

GIMNDMPSLTAT
protein stability index: 0.6757 ± 0.0038

KGRFILKCKDIF
protein stability index: 0.637 ± 0.071

VFVPCIFRQIAG
protein stability index: 0.6096 ± 0.0019

QQATLYCTTVRK
protein stability index: 0.682 ± 0.014

RFRTVFFPLPRC
protein stability index: 0.716 ± 0.062

PWGGLGTGWGRR
protein stability index: 0.75 ± 0.035

WRGIFPSRFCLS
protein stability index: 0.62 ± 0.039

LREENKKSETKR
protein stability index: 0.705 ± 0.027

TSFLRSPPPPRL
protein stability index: 0.763 ± 0.012

PILPPLVPSSRL
protein stability index: 0.769 ± 0.07

CGSTLLPESYIQ
protein stability index: 0.645 ± 0.052

PCPRIPSSRRLA
protein stability index: 0.574 ± 0.044

CRAPSPRPWRPH
protein stability index: 0.708 ± 0.062

GSNLQWNSKREE
protein stability index: 0.6165 ± 0.0016

AFDPGLPPRRSD
protein stability index: 0.755 ± 0.011

ERYRDVPVTSNR
protein stability index: 0.724 ± 0.013

CCARRWLNFEYW
protein stability index: 0.72 ± 0.032

WLFDFECRCILG
protein stability index: 0.65 ± 0.11

VWSPGGGAFVGG
protein stability index: 0.815 ± 0.047

IVLSRVHLLVGP
protein stability index: 0.5798 ± 0.0032

GGKEEGAGRRGV
protein stability index: 0.69 ± 0.059

PVDDFVCLEVDS
protein stability index: 0.688 ± 0.061

PPPCSFTRKRQR
protein stability index: 0.664 ± 0.014

PTRQKRPPYRIK
protein stability index: 0.711 ± 0.031

SHTAWEQRVPKQ
protein stability index: 0.729 ± 0.02

ASCAPGDVTQVG
protein stability index: 0.718 ± 0.038

NIKLKVCKEEMR
protein stability index: 0.5706 ± 0.0012

PPSSPPHSRRHG
protein stability index: 0.664 ± 0.055

FVGFVFSSAVGL
protein stability index: 0.684 ± 0.011

VLVGWWGLGGGV
protein stability index: 0.642 ± 0.046

HIFQRMCKDMQL
protein stability index: 0.6296 ± 0.0037

LFPRFPPPAPPL
protein stability index: 0.723 ± 0.099

PSELGAGYVMGG
protein stability index: 0.6936 ± 0.0034

GCLGVRMFRVGG
protein stability index: 0.59 ± 0.015
